Laboratory results: article PMC8760323, “Single-chain tandem macrocyclic peptides as a scaffold for growth factor and cytokine mimetics” (Communications Biology, 2022)
Positions of bridges follow the written chain, without caps; N, C: chain ends. No end group written: not given here.

T1: EPOR (Homo sapiens, UniProt P19235)
T1 sequence (P19235 25-508): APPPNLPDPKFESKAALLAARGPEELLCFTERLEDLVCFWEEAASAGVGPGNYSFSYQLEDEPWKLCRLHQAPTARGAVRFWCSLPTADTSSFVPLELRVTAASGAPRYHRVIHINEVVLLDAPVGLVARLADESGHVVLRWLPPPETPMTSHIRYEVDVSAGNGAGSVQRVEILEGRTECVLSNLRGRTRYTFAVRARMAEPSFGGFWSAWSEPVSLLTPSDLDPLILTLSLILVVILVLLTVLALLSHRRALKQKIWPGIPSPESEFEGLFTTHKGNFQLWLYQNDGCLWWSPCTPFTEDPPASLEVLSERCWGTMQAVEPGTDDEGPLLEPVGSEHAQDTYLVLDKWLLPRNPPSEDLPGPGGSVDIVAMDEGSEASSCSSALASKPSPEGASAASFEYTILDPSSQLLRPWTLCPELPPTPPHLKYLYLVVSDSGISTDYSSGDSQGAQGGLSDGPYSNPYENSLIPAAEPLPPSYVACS

T2: human EPOR ectodomain-Fc (Homo sapiens, UniProt P19235)
T2 construct: human EPOR ectodomain-Fc; purchased R&D Systems
T2 sequence (P19235 25-250 limits assumed): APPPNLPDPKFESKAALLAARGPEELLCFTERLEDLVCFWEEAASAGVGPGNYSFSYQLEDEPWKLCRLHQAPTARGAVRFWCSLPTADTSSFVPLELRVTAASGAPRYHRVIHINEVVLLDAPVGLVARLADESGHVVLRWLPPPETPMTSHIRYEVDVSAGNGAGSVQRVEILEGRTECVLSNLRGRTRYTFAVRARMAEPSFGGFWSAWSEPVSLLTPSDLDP

T3: Recombinant human EPOR ectodomain-Fc (human, UniProt P19235 25-250)
T3 construct: erythropoietin receptor (EPOR), human, ectodomain; Captured on the chip with a human antibody capture kit, by its Fc; also called EPOR-Fc; rhEPOR ectodomain-Fc; source: bought: R&D Systems
T3 sequence (looked up): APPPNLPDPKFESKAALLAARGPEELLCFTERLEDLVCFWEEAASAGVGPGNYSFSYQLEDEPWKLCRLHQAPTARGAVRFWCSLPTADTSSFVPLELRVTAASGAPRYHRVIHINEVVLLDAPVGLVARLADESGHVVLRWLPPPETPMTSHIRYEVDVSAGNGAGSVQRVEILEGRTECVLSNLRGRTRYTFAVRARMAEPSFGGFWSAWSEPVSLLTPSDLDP

B1: aMD4dY (peptide)
peptide: CRQFNRRTHEVWNLDC-OH
modifications: disulfide 1-16; N-terminus assumed
SMILES: CC(C)C[C@@H]1NC(=O)[C@H](CC(N)=O)NC(=O)[C@H](Cc2c[nH]c3ccccc23)NC(=O)[C@H](C(C)C)NC(=O)[C@H](CCC(=O)O)NC(=O)[C@H](Cc2c[nH]cn2)NC(=O)[C@H]([C@@H](C)O)NC(=O)[C@H](CCCNC(=N)N)NC(=O)[C@H](CCCNC(=N)N)NC(=O)[C@H](CC(N)=O)NC(=O)[C@H](Cc2ccccc2)NC(=O)[C@H](CCC(N)=O)NC(=O)[C@H](CCCNC(=N)N)NC(=O)[C@@H](N)CSSC[C@@H](C(=O)O)NC(=O)[C@H](CC(=O)O)NC1=O
notes: also called aMD4dY (Monomer); monomeric aMD4dY; source: synthetic peptide (GenScript Japan)
B2: EMP35 (peptide)
peptide: GGLYACHMGPMTWVCQPLRG
modifications: disulfide 6-15
notes: also called EMP35 (Monomer); monomeric EMP35; source: synthetic peptide (GenScript Japan)
B3: EMP-PA22 (designed binder)
chain: AETGGLYACHMGPMTWVCQPLRGAAPAAPAPAAPAAPAPAAPAAPGGLYACHMGPMTWVCQPLRG
modifications: disulfide 9-18, 51-60 (inferred)
notes: Expressed with the CspB signal peptide of C. glutamicum ATCC13869; also called EMP-PA22 (STaMPtide); EPO mimetic STaMPtide; source: C. glutamicum YPS010, secreted into the supernatant, purified (RP-HPLC)
B4: EMP-PA22: EPO mimetic STaMPtide, EMP35 dimerized with 22-amino-acid PA linker (peptide)
chain: AETGGLYACHMGPMTWVCQPLRGAAPAAPAPAAPAAPAPAAPAAPGGLYACHMGPMTWVCQPLRG
modifications: disulfide 9-18, 51-60 (inferred)
B5: EMP-PA8 (designed binder)
chain: AETGGLYACHMGPMTWVCQPLRGAAPAAPAPGGLYACHMGPMTWVCQPLRG
modifications: disulfide 9-18, 37-46 (inferred)
notes: Expressed with the CspB signal peptide of C. glutamicum ATCC13869; also called EMP-PA8 (STaMPtide); EPO mimetic STaMPtide; source: C. glutamicum YPS010, secreted into the supernatant, purified (RP-HPLC)

Tests used:
EPOR = target: T1, EPOR; experiment: EPOR-JAK2 functional assay (PathHunter); assay type: cell-based; details: for EPOR activation by serially diluted supernatants: decellularized supernatant; for EC50: purified, 3 h at room temperature, read-out: half-maximal effective concentration (EC50)
Experimental: Agonistic activity against EPOR was assessed using the PathHunter® eXpress EpoR-JAK2 Functional Assay Kit (DiscoverX) according to the manufacturer’s instructions. Briefly, cells were seeded on a 96-well cell culture plate and incubated overnight in 5% CO2 at 37 °C. […] The cells were lysed with a substrate reagent, and chemiluminescence was detected using a Nivo plate reader (PerkinElmer).

human EPOR ectodomain-Fc = target: T2, human EPOR ectodomain-Fc; experiment: SPR analysis, human EPOR ectodomain; assay type: binding; details: for binding against EPOR: exact dissociation constants not determinable, too slow dissociation
Experimental: (§1) Binding constants of the STaMPtides and monomeric macrocyclic peptides to their corresponding receptor ectodomains were determined by SPR analysis using Biacore T200 (Cytiva). HBS-EP + buffer (Cytiva) containing 0.1% dimethyl sulfoxide (DMSO; Sigma-Aldrich, St. Louis, MO, USA) was used as the running buffer. As ligands, recombinant human Met ectodomain-Fc and human EPOR ectodomain-Fc were immobilized to around 1000 response units on CM5 sensor chips using a human antibody capture kit (Cytiva). STaMPtides and monomeric macrocyclic peptides were injected in five concentrations at a flow rate of 30 μL/min using a single-cycle kinetics method. Binding constants were quantified by analysis of the 1:1 binding model.

[1] = target: T4, recombinant human Met ectodomain-Fc (Homo sapiens, UniProt P08581); experiment: SPR analysis, human Met ectodomain; assay type: binding
T4 construct: recombinant human Met ectodomain-Fc; purchased R&D Systems
T4 sequence (P08581 25-932 limits assumed): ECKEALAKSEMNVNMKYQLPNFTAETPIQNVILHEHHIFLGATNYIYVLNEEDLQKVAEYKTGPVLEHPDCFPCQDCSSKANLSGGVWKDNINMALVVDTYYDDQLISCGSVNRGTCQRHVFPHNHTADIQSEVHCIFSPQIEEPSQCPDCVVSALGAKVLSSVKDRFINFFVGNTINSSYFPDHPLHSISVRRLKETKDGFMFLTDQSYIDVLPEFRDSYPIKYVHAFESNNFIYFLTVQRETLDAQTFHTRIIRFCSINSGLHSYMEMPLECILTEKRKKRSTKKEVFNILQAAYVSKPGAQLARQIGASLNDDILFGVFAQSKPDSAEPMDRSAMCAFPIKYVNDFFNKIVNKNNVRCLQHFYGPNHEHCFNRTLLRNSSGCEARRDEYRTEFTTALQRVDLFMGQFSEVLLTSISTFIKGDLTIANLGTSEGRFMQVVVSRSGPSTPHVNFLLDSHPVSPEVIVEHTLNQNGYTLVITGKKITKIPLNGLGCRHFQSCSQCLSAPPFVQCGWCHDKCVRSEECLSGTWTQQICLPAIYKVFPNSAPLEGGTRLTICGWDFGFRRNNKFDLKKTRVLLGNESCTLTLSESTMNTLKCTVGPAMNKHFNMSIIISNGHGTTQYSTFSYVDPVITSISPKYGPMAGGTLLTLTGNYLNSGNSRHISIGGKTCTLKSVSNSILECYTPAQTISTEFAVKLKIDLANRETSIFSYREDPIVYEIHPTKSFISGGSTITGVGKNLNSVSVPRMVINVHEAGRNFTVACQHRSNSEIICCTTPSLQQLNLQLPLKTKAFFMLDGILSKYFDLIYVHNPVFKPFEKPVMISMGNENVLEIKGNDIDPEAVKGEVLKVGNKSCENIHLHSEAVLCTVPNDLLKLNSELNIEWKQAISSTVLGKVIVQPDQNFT
Experimental: as §1

Met = experiment: Cell-based phospho-Met ELISA (HuCCT1 cells); set-up: species or system human; details: phospho-Met ELISA and Erk signaling reporter assay
Experimental: The phosphorylation level of Met was evaluated according to a previously reported method[6],[32], with slight modifications. In brief, HuCCT-1 cells at a density of 10,000 cells/well were seeded on 96-well cell culture plates and incubated overnight in 5% CO2 at 37 °C. The cells were stimulated by rhHGF, purified HGF mimetic STaMPtides, and monomeric aMD4dY for 10 min in a 5% CO2 incubator at 37 °C. Next, cells were fixed using 4% paraformaldehyde in phosphate-buffered saline (PBS) for 20 min. Cells were washed three times with PBS and blocked with 1% BSA and 0.02% Triton X-100 in PBS for 30 min at room temperature. Cells were incubated with 1:1000 diluted phospho-Met (Tyr1234/1235) (D26) XP Rabbit mAb (Cell Signaling Technology) supplemented with 1% BSA in PBS at 4 °C overnight. After washing three times with PBS, the cells were incubated with 1:1000 diluted […] HRP-linked IgG antibody (Cell Signaling Technology) supplemented with 1% BSA in PBS at room temperature for 3 h. Cells were washed four times with PBS and incubated with 100 μL TMB substrate for 30 min. The reaction was stopped with an equal volume of 0.2 N sulfuric acid, and absorbance was quantified at 450 nm by the Molecular Imager ChemiDoc XRS System (Bio-Rad).

[2] = target: T5, Recombinant human Met ectodomain-Fc (human, UniProt P08581 25-932); experiment: SPR; Biacore T200; receptor ectodomain-Fc immobilised to around 1000 RU on CM5 chips with a human antibody capture kit; peptides injected in five concentrations at 30 uL/min, single-cycle kinetics; HBS-EP+ buffer with 0.1% DMSO; 1:1 binding model; mean and SD of triplicate experiments; details: both partners purified
T5 construct: Met, receptor of hepatocyte growth factor, human, ectodomain; Captured on the chip with a human antibody capture kit, by its Fc; also called Met-Fc; source: bought: R&D Systems
T5 sequence (P08581 25-932): as the sequence (P08581 25-932 limits assumed) above

[3] = target: T3, Recombinant human EPOR ectodomain-Fc; experiment: as above; details: both partners purified
[4] = target: T3, Recombinant human EPOR ectodomain-Fc; experiment: SPR; Biacore T200; receptor ectodomain-Fc immobilised to around 1000 RU on CM5 chip by human antibody capture kit; peptides injected in five concentrations at 30 uL/min, single-cycle kinetics; HBS-EP+ buffer with 0.1% DMSO; 1:1 binding model; three runs (N 1-3) and their average
hPBMCs = experiment: Colony-forming assay; assay type: cell-based, human; details: at doses of 33 ng/mL or higher, 13 days
Experimental: Next, 1.1 mL of the mixture was seeded in a 6-well cell culture plate and cultured for 13 days in 5% CO2 at 37 °C. At day 13, colony numbers were counted, and images were taken by inverted microscopy and BZ-X fluorescence microscopy.

| Molecule | kd (human EPOR ectodomain-Fc; Table S1, Average of N 1-3) [M⁻¹ s⁻¹] | KD (human EPOR ectodomain-Fc; Table S1, N 1) [nM] | kd (human EPOR ectodomain-Fc; Table S1, N 1) [M⁻¹ s⁻¹] | KD (human EPOR ectodomain-Fc; Table S1, N 2) [nM] | kd (human EPOR ectodomain-Fc; Table S1, N 2) [M⁻¹ s⁻¹] | KD (human EPOR ectodomain-Fc; Table S1, N 3) [nM] | kd (human EPOR ectodomain-Fc; Table S1, N 3) [M⁻¹ s⁻¹] | binding against EPOR (human EPOR ectodomain-Fc) | Kd [3] [nM] | Kd [4] [nM] | other results |
| --- | --- | --- | --- | --- | --- | --- | --- | --- | --- | --- | --- |
| CSCC[C@@H]1NC(=O)[C@H](Cc2c[nH]cn2)NC(=O)[C@@H](NC(=O)[C@H](C)NC(=O)[C@H](Cc2ccc(O)cc2)NC(=O)[C@H](CC(C)C)NC(=O)CNC(=O)CN)CSSC[C@@H](C(=O)N[C@@H](CCC(N)=O)C(=O)N2CCC[C@H]2C(=O)N[C@@H](CC(C)C)C(=O)N[C@@H](CCCNC(=N)N)C(=O)NCC(=O)O)NC(=O)[C@H](C(C)C)NC(=O)[C@H](Cc2c[nH]c3ccccc23)NC(=O)[C@H]([C@@H](C)O)NC(=O)[C@H](CCSC)NC(=O)[C@@H]2CCCN2C(=O)CNC1=O [EMP35, reference compound] | 1e-05 | 0.089 | 1e-05 | 0.15 | 1e-05 | 1.3 | 1e-05 | strong binding potency | – | – | agonist potency weaker than STaMPtides (EPOR): ~ 1000 times |
| aMD4dY: modified macrocyclic Met-binding peptide: aMD4 without N-terminal D-Tyr, disulfide instead of thioether linkage (CRQFNRRTHEVWNLDC-OH; disulfide 1-16; N-terminus assumed; SMILES CC(C)C[C@@H]1NC(=O)[C@H](CC(N)=O)NC(=O)[C@H](Cc2c[nH]c3ccccc23)NC(=O)[C@H](C(C)C)NC(=O)[C@H](CCC(=O)O)NC(=O)[C@H](Cc2c[nH]cn2)NC(=O)[C@H]([C@@H](C)O)NC(=O)[C@H](CCCNC(=N)N)NC(=O)[C@H](CCCNC(=N)N)NC(=O)[C@H](CC(N)=O)NC(=O)[C@H](Cc2ccccc2)NC(=O)[C@H](CCC(N)=O)NC(=O)[C@H](CCCNC(=N)N)NC(=O)[C@@H](N)CSSC[C@@H](C(=O)O)NC(=O)[C@H](CC(=O)O)NC1=O) | – | – | – | – | – | – | – | – | – | – | binding to human Met [1]: retained its binding capacity to human Met; kd ([1]; Table S1, Average of N 1-3): 0.045 M⁻¹ s⁻¹; KD ([1]; Table S1, N 1): 39 nM; kd ([1]; Table S1, N 1): 0.04 M⁻¹ s⁻¹; KD ([1]; Table S1, N 2): 53 nM; kd ([1]; Table S1, N 2): 0.05 M⁻¹ s⁻¹; KD ([1]; Table S1, N 3): 44 nM; kd ([1]; Table S1, N 3): 0.044 M⁻¹ s⁻¹; Met phosphorylation and Erk-SRE signaling activation (Met): did not activate Met |
| AETGGLYACHMGPMTWVCQPLRGAAPAAPAPGGLYACHMGPMTWVCQPLRG (disulfide 9-18, 37-46) [EMP-PA8] | 1e-05 | 0.034 | 1e-05 | 0.026 | 1e-05 | 0.03 | 1e-05 | strong binding potency | – | – | EPOR activation by serially diluted supernatants (EPOR): activated EPOR, even at high dilutions; EC50 (EPOR): 0.022 nM; association rate higher than that of EMP35 (human EPOR ectodomain-Fc): 5–10 times; Kd (human EPOR ectodomain-Fc; Table S1, Average of N 1-3): 0.03 nM |
| B1 | – | – | – | – | – | – | – | – | – | – | Kd [2]: 45 nM |
| B2 | – | – | – | – | – | – | – | – | < 0.5 | < 0.0887 | – |
| B3 | – | – | – | – | – | – | – | – | < 0.013 | < 0.0104 | – |
| B4 | 1e-05 | 0.014 | 1e-05 | 0.015 | 1e-05 | 0.01 | 1e-05 | strong binding potency | – | – | EPOR activation by serially diluted supernatants (EPOR): activated EPOR, even at high dilutions; EC50 (EPOR): 0.22 nM; association rate higher than that of EMP35 (human EPOR ectodomain-Fc): 5–10 times; erythroid colony formation efficiency (hPBMCs): equivalent to or higher than that of 10 ng/mL of rhEPO |
| B5 | – | – | – | – | – | – | – | – | < 0.03 | < 0.0257 | – |
